# Publication doi:10.1101/2021.08.06.455374 (bioRxiv, 2021)
# Biological target: the molecule itself
# Test: SEC
protein,measurement,value
dolphin Prestin (SLC26A5) (natural protein) MDHVEETEILAATQRYYVERPIFSHPVLQERLHKKDKISESIGDKLKQAFTCTPKKIRNIIYMFLPITKWLPAYRFKEYVLGDIVSGISTGVLQLPQGLAFAMLAAVPPVFGLYSSFYPVIMYCFFGTSRHISIGPFAVISLMIGGVAVRLVPDDIVIPGGVNATNSTEARDALRVKVAMSVTLLTGIIQFCLGVCRFGFVAIYLTEPLVRGFTTAAAVHVFTSMLKYLFGVKTKRYSGIFSVVYSTVAVLQNVKNLNVCSLGVGLMVFGLLLGGKEFNERFKEKLPAPIPLEFFAVVMGTGISAGFSLHESYNVDVVGTLPLGLLPPANPDTSLFHLVYVDAIAIAIVGFSVTISMAKTLANKHGYQVDGNQELIALGLCNSTGSLFQTFAISCSLSRSLVQEGTGGKTQLAGCLASLMILLVILATGFLFESLPQAVLSAIVIVNLKGMFMQFSDLPFFWRTSKIELTIWLTTFVSSLFLGLDYGLITAVIIALMTVIYRTQSPSYIVLGQLPDTDVYIDIDAYEEVKEVPGIKIFQINAPIYYANSDLYSSALKRKTGVNPAFILGARRKAMKKYAKEVGNANMANATVVKVDAEVDAEDGTKPEEEEDEIKYPPIVTKSTLPEELQRFMPPGDNVHTIILDFTQVNFMDSVGVKTLAGIVKEYGDVGIYVYLAGCSAQVVSDLTQNQFFENPALLDLLFHSIHDAVLGSQVREALAEQEATAAPPQEDSEPNATPEA,stoichiometry N,2
